In patent US20230235040A1:
Changes are numbered by the printed parent chain.

T1: hu-IL-36β (human IL-36β, N-terminally truncated active form R5-E157) (human)
T1 sequence: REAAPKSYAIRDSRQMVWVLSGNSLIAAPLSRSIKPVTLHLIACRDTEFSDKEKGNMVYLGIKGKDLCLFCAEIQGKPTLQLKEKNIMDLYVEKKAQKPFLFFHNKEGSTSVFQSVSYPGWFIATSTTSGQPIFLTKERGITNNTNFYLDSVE

B1: mAb2.0 Fab (yeast clone culture supernatant) (Fab, V domains shown)
VH: QLQLQESGPGLVKPSETLSLTCTVSGGSISTSSYYWGWIRQPPGKGLEWIGSIYYTGNTYYNPSLKSRVTISVDTSKNQFSLKLSSVTAADTAVYYCARVRYGVGVPRYFDPWGQGTLVTVSS
VL: QSVLTQPPSVSGAPGQRVTISCTGSSSNIGAHYDVHWYQQLPGTAPKLLIYGNDNRPSGVPDRFSGSKSGTSASLAITGLQAEDEADYYCQSYDYSLSGYVFGGGTKLTVL
B2: mAb3.0 Fab (yeast clone culture supernatant) (Fab, V domains shown)
VH: B1 VH with T31S, S32T, Y54H, T56S, R101H, V104G, G105Y, V106I, Y109R, P112H
VL: B1 VL with H32G, D54T, S98R
B3: mAb4.0 Fab (yeast clone culture supernatant) (Fab, V domains shown)
VH: QLQLQESGPGLVKPSETLSLTCTVSGGSIGSRSYYWGWIRQPPGKGLEWIGSIHYSGTTYYNPSLKSRVTISVDTSKNQFSLKLSSVTAADTAVYYCARVAPSYPRVFDYWGQGTLVTVSS
VL: B1 VL with H32G, D54R, S98R, G99V
B4: mAb1.0 Fab (yeast clone culture supernatant) (Fab, V domains shown)
VH: QVQLVESGGGVVQPGRSLRLSCAASGFSFSAYAMHWVRQAPGKGLEWVAVISYDGTNEYYADSVKGRFTISRDNSKNTLYLQMNSLRAEDTAVYYCARGIRIFTSYFDSWGQGTLVTVSS
VL: B1 VL with G52S, D54N, S98R
B5: mAb8.0 Fab (yeast clone culture supernatant) (Fab, V domains shown)
VH: QVQLVQSGAEVKKPGSSVKVSCKASGGTFSNYAISWVRQAPGQGLEWMGGILPILGTVDYAQKFQGRVTITADESTSTAYMELSSLRSEDTAVYYCAREPWYRLGAFDVWGQGTLVTVSS
VL: DIQMTQSPSSLSASVGDRVTITCRASQTIYKYLNWYQQKPGKAPKLLIYAASSLQSGVPSRFSGSGSGTDFTLTISSLQPEDFATYYCQQYSSIPYTFGQGTKVEIK
B6: mAb6.0 Fab (yeast clone culture supernatant) (Fab, V domains shown)
VH: QLQLQESGPGLVKPSETLSLTCTVSGGSITSSNYYWGWIRQPPGKGLEWIGSIDYTGSTYYNPSLKSRVTISVDTSKNQFSLKLSSVTAADTAVYYCARGKYYETYLGFDVWGQGTLVTVSS
VL: B1 VL with H32G, D54T, Y95I, Y100W
B7: mAb7.0 Fab (yeast clone culture supernatant) (Fab, V domains shown)
VH: QVQLVESGGGVVQPGRSLRLSCAASGFTFSSYGMHWVRQAPGKGLEWVAVISYGGSERYYADSVKGRFTISRDNSKNTLYLQMNSLRAEDTAVYYCAREPWYSSRGWTGYGFDVWGQGTLVTVSS
VL: EIVLTQSPGTLSLSPGERATLSCRASQSVSSNYLAWYQQKPGQAPKLLIYSASSLQSGVPSRFSGSGSGTDFTLTISSLQPEDFATYYCQQTYSYPPTFGQGTKVEIK

molecular target: T1, hu-IL-36β (human IL-36β, N-terminally truncated active form R5-E157) (human); experiment: ELISA, yeast Fab supernatant, anti-Fab-HRP

ELISA OD450 | Binder
0.0604 OD450 | B1
0.11 OD450 | B2
0.0513 OD450 | B3
0.0523 OD450 | B4

molecular target: hu-IL-36γ (human IL-36γ, N-terminally truncated active form S18-D169) (human) (UniProt Q9NZH8); experiment: ELISA, yeast Fab supernatant, anti-Fab-HRP
Sequence (Q9NZH8 18-169 limits assumed): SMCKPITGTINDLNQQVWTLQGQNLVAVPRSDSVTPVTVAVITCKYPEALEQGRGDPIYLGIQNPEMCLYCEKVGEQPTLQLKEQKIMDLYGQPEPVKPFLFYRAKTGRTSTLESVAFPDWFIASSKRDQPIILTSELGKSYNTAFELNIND

ELISA OD450 | Binder
0.073 OD450 | B5
0.0656 OD450 | B6
0.0724 OD450 | B7

molecular target: hu-IL-36α (human IL-36α, N-terminally truncated active form K6-F158) (human) (UniProt Q9UHA7); experiment: ELISA, yeast Fab supernatant, anti-Fab-HRP
Sequence (Q9UHA7 6-158 limits assumed): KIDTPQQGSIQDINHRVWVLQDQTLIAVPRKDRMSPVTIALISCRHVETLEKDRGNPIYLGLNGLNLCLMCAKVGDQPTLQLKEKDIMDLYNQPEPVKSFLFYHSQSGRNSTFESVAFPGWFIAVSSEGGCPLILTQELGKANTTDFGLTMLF

ELISA OD450 | Binder
0.0698 OD450 | B5
0.0638 OD450 | B6
0.0604 OD450 | B7
